Test results from US20200148787A1 (KYMAB, published 2020).

B1: T25H_IgG4PE + T25L_IgK (antibody, V domains shown)
VH: QVQLQESGPGLVKPSETLSLTCTVSGGSISSGIYYWSWIRQHPGKGLEWIGYINNSGNTYYNPSLKGRVNISVDTSKKQFSLKLSSVTDADTAVYYCARGGSGDYWGQGTLVTVSS
VL: EIVLTQSPATLSLSPGERATLSCRTSQSINNYLAWFQQKPGQAPRLLIYDASNRAPGIPARFSGSGSGTDFTLTISSLEPEDFVVYFCQQRNNWPPTFGQGTKVEIKR
notes: Monospecific IgG4PE, kappa; Kappa junction as noted for T14
B2: N225H_IgG4PE + N128L_IgL (antibody, V domains shown)
VH: EVQLVESGGGFVQPGGSLRLSCAVSGFTFNSYWMSWVRQAPGKGLEWVANINQDGSEKFYVASVKGRFTISRDNAKKSVYLQMNSLRAEDTAVYYCAREGYSSSSYYGMDVWGQGTTVTVSS
VL: SYVLTQPPSVSVAPGETARITCGGDNIGRKSVYWYQQKSGQAPVLVIYYDSDRPSGIPERFSGSNSGNTATLTISRVEAGDEADYYCQVWDGSSDHWVFGGGTKLTVLG
notes: Monospecific IgG4PE with lambda light chain

Experiments:
[1] = target: Human Factor X (FX) (human, UniProt P00742 41-179; P00742 183-488, limits assumed); test: SPR Biacore 8K, IgG captured on anti-human IgG Fc, FX analyte, 25 C, 1:1 fit
Experimental: (§1) Amine coupling kit (BioRad) was used to activate the surface of the chip. […] The immobilisation run was performed at 25° C. using HBS-EP (10 mM HEPES pH 7.4, 150 mM NaCl, 3 mM EDTA, 0.05% Polysorbate 20 pH 7.6) as immobilisation running buffer.
The run was performed at 25° C. using neutral pH (pH 7.4) HBS-P 1× (0.01 M HEPES pH 7.4, 0.15 M NaCl, 0.05% Polysorbate 20 pH 7.6)+CaCl₂) 2.5 mM as running buffer.

[2] = target: T1, Human factor IX (FIX) (human, UniProt P00740 47-461, 12 glutamic acid residues in the GLA domain post-translationally gamma-carboxylated (general description)); test: SPR Biacore 8K, IgG captured on anti-human IgG Fc, FIX analyte, 25 C, 1:1 fit
T1 construct: mature; Bought reagent, used as SPR analyte
Experimental: as §1, with “An anti-human IgG Fc antibody was immobilised on CM4 chip (GE Healthcare catalog number BR100534) according to manufacturer's instructions. Amine” for “Amine”
Purified monospecific antibodies (referred to as ligand) from Example 13 were captured on the anti-human IgG Fc CM4 surface at approximately 2 μg/ml. The ligands were injected for 60 sec at 10 μl/min in all the active channels of all 8 flow channels. The run was performed at 25° C. using neutral pH (pH 7.4) HBS-P 1× (0.01 M HEPES pH 7.4, 0.15 M NaCl, 0.05% Polysorbate 20 pH 7.6)+CaCl₂) 2.5 mM as running buffer. Human factor IX (FIX) (Enzyme Research Laboratories cat n. HFIX 47064) was reconstituted at 1 mg/ml (MW ˜55 KDa) in the running buffer and used as analyte. […] Three injections of 10 mM glycine pH 1.5 for 60 sec at 10 μl/min were used for the regeneration phase.
The association and dissociation data of the interaction were fitted using biomolecular reaction model (1:1 Langmuir model). The values for association rate constant (kₒₙ), dissociation rate constant (koff) and dissociation constant (KD) were calculated from the binding data by BIAevaluation software.

Chain of Human Factor X (FX) (P00742 41-179 limits assumed, form in doubt, chain 1 of 2): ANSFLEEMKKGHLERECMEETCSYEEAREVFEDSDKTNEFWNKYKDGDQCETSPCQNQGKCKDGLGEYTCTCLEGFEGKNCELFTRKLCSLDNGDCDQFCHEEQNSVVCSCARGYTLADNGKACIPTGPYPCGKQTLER
Chain of Human Factor X (FX) (P00742 183-488 limits assumed, form in doubt, chain 2 of 2): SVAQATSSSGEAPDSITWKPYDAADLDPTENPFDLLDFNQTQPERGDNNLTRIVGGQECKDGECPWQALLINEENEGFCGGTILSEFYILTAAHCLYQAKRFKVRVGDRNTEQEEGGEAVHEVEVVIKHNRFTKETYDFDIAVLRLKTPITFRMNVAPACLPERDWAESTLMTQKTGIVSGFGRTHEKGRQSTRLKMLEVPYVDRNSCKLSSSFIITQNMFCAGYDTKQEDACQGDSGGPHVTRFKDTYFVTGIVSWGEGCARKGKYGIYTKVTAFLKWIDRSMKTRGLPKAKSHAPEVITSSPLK

Row | Binder | Kd [1] [nM] | Kd [2] [nM] | koff [2] [s⁻¹] | kon [2] [M⁻¹ s⁻¹]
1 | B1 | 3.57 |  |  | 
2 | B2 |  | 428 | 0.031 | 72300
